Experimental findings from patent US20220034872 are described below.

The series has as its system GST fusion recombinant OCT4 protein.

For GST fusion recombinant CSNK2A1, the “in vitro kinase assay, OCT4 phosphorylation read by SDS-PAGE and western blotting” value was “in the presence of OCT4 and CSNK2A1, OCT4 phosphorylation was recognized by a phosphorylated antibody”.
